T1: Yfr024 SH3 (LSB3_YEAST), P43603
T1 chain: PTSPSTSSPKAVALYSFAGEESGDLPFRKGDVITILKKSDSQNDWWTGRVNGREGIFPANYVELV

T2: Boi2 SH3 (BOI2_YEAST), P39969
T2 chain: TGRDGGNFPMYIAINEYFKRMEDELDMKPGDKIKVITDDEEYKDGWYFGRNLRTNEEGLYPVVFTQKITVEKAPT

T3: Rvs167 SH3 (RV167_YEAST), P39743
T3 chain: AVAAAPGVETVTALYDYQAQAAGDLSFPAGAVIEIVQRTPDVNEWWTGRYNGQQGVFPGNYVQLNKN

T4: Yhr016c SH3 (YSC84_YEAST), P32793
T4 chain: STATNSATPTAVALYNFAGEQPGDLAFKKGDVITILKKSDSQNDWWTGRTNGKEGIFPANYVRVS

T5: Boi1 SH3 (BOI1_YEAST), P38041
T5 chain: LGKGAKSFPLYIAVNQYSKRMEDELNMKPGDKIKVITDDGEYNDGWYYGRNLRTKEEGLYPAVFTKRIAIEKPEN


Columns and labels:
Assay in all cases: SPOT array
[1] = biological target: T1, Yfr024 SH3 (LSB3_YEAST), P43603
[2] = biological target: T2, Boi2 SH3 (BOI2_YEAST), P39969
[3] = biological target: T3, Rvs167 SH3 (RV167_YEAST), P39743
[4] = biological target: T4, Yhr016c SH3 (YSC84_YEAST), P32793
[5] = biological target: T5, Boi1 SH3 (BOI1_YEAST), P38041

Binder	normalised SPOT signal, Boehringer light units (BLU); mean over the file's lines of this peptide [1]	normalised SPOT signal, Boehringer light units (BLU); mean over the file's lines of this peptide [2]	normalised SPOT signal, Boehringer light units (BLU); mean over the file's lines of this peptide [3]	normalised SPOT signal, Boehringer light units (BLU); mean over the file's lines of this peptide [4]	normalised SPOT signal, Boehringer light units (BLU); mean over the file's lines of this peptide [5]
PTAPNSPIKLGRRK [YIL112W 218-231]	547	68.2	11.6	175	135
PTPPSPPAKRIPRS [YPR171W 305-318]	8640	134	59.3	0	347
PTTPGYPSKDSDTE [YJR126C 341-354]	139	27.1	45.8	25	40.3
PVDPTTPVKLGPGI [YOL142W 12-25]	-0	21.4	19	179	40.5
PVGPKVPAKEPSPK [YEL043W 874-887]	381	5.8	30.7	48.6	88
PVYPSLPERSKVIL [YGR099W 44-57]	24100	34	4000	21100	40.1
PYPPSLPSRDLYEV [YLL028W 113-126]	8330	31.1	944	16000	36.2
QAAPRNPNKDATIA [YOR363C 59-72]	8.2	10.5	40.7	46.6	78.3
QAHPPKPKRREGDI [YKR050W 402-415]	9260	38.2	41.1	740	133
